Assay results published in paper PMC9482650, “Quantitative fragmentomics allow affinity mapping of interactomes” (Nature Communications, 2022).
Changes are numbered by the printed parent chain.

T1: APBA1_2, Q02410
T1 sequence (Q02410 742-832, limits assumed, looked up): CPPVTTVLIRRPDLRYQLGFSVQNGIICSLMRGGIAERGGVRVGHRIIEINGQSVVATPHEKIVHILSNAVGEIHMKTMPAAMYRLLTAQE

T2: APBA2_1, Q99767
T2 sequence (Q99767 563-664, limits assumed, looked up): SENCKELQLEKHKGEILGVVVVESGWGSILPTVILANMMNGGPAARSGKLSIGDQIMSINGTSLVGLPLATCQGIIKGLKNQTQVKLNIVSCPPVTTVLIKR

T3: APBA2_2, Q99767
T3 sequence (Q99767 654-744, limits assumed, looked up): T1 sequence (Q02410 742-832, limits assumed, looked up) with R10K, R15K, P59A, H65Q, I66A, A70S, Y84F, A89G

T4: DLG3_2, Q92796
T4 sequence (Q92796 221-321, limits assumed, looked up): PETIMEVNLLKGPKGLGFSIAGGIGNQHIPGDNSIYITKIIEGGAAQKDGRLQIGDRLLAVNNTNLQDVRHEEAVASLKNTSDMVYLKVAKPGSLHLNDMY

T5: FRMPD1, Q5SYB0
T5 sequence (Q5SYB0 52-145, limits assumed, looked up): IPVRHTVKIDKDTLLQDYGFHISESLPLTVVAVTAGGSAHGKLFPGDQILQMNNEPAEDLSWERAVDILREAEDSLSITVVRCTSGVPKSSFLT

T6: GRIP1_5, Q9Y3R0
T6 sequence (Q9Y3R0 568-668, limits assumed, looked up): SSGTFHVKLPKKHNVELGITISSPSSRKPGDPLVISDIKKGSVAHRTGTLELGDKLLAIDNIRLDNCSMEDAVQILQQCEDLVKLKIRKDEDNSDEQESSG

T7: LNX2_2, Q8N448
T7 sequence (Q8N448 334-432, limits assumed, looked up): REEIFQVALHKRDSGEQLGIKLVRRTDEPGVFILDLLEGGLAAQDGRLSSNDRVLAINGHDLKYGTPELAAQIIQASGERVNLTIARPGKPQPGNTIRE

T8: LRRC7, Q96NW7
T8 sequence (Q96NW7 1440-1537, limits assumed, looked up): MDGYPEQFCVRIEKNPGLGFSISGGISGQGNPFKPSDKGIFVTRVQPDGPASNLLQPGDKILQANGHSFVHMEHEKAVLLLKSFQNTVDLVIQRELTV

T9: MPP2, Q14168
T9 sequence (Q14168 180-250, limits assumed, looked up): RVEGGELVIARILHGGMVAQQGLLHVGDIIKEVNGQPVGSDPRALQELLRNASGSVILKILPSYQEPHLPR

T10: NHERF3_4, Q5T2W1
T10 sequence (Q5T2W1 373-468, limits assumed, looked up): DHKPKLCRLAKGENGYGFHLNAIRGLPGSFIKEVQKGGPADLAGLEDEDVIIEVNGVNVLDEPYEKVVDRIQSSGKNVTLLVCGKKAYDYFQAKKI

T11: RADIL, Q96JH8
T11 sequence (Q96JH8 971-1071, limits assumed, looked up): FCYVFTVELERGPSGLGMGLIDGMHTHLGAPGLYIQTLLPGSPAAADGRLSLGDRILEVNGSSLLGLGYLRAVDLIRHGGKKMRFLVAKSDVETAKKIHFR

T12: SIPA1L2, Q9P2F8
T12 sequence (Q9P2F8 945-1036, limits assumed, looked up): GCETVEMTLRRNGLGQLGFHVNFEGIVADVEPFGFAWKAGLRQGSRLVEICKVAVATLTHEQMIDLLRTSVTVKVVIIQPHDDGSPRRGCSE

T13: TIAM2, Q8IVF5
T13 sequence (Q8IVF5 885-986, limits assumed, looked up): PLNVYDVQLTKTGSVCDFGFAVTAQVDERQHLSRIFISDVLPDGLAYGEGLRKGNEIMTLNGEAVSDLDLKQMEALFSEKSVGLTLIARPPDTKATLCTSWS


Tests used:
Assay in all cases: holdup assay
Set-up in all cases: key: below the threshold = too weak to quantify, mostly under pKd 3.1 to 4
Conditions in all cases: plain residues with an end cap or a label only (N-terminal biotin on a linker: ado-ado)
APBA1_2, Q02410 = target: T1, APBA1_2, Q02410
APBA2_1, Q99767 = target: T2, APBA2_1, Q99767
APBA2_2, Q99767 = target: T3, APBA2_2, Q99767
DLG3_2, Q92796 = target: T4, DLG3_2, Q92796
DLG4_1, P78352 = target: DLG4_1, P78352
Sequence of DLG4_1, P78352 (P78352 62-152): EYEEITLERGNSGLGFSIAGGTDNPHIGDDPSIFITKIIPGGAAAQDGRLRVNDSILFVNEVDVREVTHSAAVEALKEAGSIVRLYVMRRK

FRMPD1, Q5SYB0 = target: T5, FRMPD1, Q5SYB0
FRMPD3, Q5JV73 = target: FRMPD3, Q5JV73
Sequence of FRMPD3, Q5JV73 (Q5JV73 12-100): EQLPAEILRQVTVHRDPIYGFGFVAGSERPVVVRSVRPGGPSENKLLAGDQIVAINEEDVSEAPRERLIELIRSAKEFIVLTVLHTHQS

GRIP1_5, Q9Y3R0 = target: T6, GRIP1_5, Q9Y3R0
GRIP2_5, Q9C0E4 = target: GRIP2_5, Q9C0E4
Sequence of GRIP2_5, Q9C0E4 (Q9C0E4 544-642): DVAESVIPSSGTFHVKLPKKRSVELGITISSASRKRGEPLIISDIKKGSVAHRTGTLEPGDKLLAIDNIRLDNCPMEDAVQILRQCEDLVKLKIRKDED

Inadl_6, Q8NI35 = target: Inadl_6, Q8NI35
Sequence of Inadl_6, Q8NI35 (Q8NI35 1058-1167): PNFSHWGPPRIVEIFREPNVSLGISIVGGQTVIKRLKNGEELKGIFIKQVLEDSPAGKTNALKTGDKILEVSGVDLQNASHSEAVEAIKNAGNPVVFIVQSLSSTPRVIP

LNX1_2, Q8TBB1 = target: LNX1_2, Q8TBB1
Sequence of LNX1_2, Q8TBB1 (Q8TBB1 371-470): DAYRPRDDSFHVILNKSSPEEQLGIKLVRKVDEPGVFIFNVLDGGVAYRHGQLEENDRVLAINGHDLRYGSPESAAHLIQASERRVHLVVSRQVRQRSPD

LNX2_2, Q8N448 = target: T7, LNX2_2, Q8N448
LRRC7, Q96NW7 = target: T8, LRRC7, Q96NW7
MAGI2_4, Q86UL8 = target: MAGI2_4, Q86UL8
Sequence of MAGI2_4, Q86UL8 (Q86UL8 772-865): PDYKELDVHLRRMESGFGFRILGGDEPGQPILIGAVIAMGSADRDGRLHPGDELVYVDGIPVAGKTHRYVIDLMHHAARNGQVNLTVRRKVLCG

MAGI2_5, Q86UL8 = target: MAGI2_5, Q86UL8
Sequence of MAGI2_5, Q86UL8 (Q86UL8 915-1017): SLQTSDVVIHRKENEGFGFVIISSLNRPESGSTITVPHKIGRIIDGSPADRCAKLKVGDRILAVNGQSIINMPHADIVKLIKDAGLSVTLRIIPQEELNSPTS

MAST2, Q6P0Q8 = target: MAST2, Q6P0Q8
Sequence of MAST2, Q6P0Q8 (Q6P0Q8 1099-1202): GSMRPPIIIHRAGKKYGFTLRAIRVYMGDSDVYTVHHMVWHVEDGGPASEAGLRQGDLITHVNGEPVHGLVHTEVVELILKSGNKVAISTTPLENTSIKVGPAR

MPP2, Q14168 = target: T9, MPP2, Q14168
NHERF3_4, Q5T2W1 = target: T10, NHERF3_4, Q5T2W1
NOS1, P29475 = target: NOS1, P29475
Sequence of NOS1, P29475 (P29475 9-101): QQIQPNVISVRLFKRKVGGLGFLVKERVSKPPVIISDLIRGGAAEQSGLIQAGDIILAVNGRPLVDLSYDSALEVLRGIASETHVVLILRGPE

PDLIM1, O00151 = target: PDLIM1, O00151
Sequence of PDLIM1, O00151 (O00151 1-87): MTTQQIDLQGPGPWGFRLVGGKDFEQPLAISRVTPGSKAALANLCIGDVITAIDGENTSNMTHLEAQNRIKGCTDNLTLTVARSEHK

RADIL, Q96JH8 = target: T11, RADIL, Q96JH8
SCRIB_3, Q14160 = target: SCRIB_3, Q14160
Sequence of SCRIB_3, Q14160 (Q14160 999-1103): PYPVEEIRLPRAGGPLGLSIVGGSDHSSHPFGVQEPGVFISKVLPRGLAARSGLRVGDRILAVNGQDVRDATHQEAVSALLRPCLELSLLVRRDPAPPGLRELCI

SIPA1L2, Q9P2F8 = target: T12, SIPA1L2, Q9P2F8
TIAM2, Q8IVF5 = target: T13, TIAM2, Q8IVF5
TJP1_2, Q07157 = target: TJP1_2, Q07157
Sequence of TJP1_2, Q07157 (Q07157 181-274): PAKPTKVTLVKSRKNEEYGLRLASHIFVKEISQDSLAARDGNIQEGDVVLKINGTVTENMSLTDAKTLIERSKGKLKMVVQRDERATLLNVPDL

| pKd (APBA1_2, Q02410) | pKd (APBA2_1, Q99767) | pKd (APBA2_2, Q99767) | pKd (DLG3_2, Q92796) | pKd (DLG4_1, P78352) | pKd (FRMPD1, Q5SYB0) | pKd (FRMPD3, Q5JV73) | pKd (GRIP1_5, Q9Y3R0) | pKd (GRIP2_5, Q9C0E4) | pKd (Inadl_6, Q8NI35) | pKd (LNX1_2, Q8TBB1) | pKd (LNX2_2, Q8N448) | pKd (LRRC7, Q96NW7) | pKd (MAGI2_4, Q86UL8) | pKd (MAGI2_5, Q86UL8) | pKd (MAST2, Q6P0Q8) | pKd (MPP2, Q14168) | pKd (NHERF3_4, Q5T2W1) | pKd (NOS1, P29475) | pKd (PDLIM1, O00151) | Binder | also measured |
| --- | --- | --- | --- | --- | --- | --- | --- | --- | --- | --- | --- | --- | --- | --- | --- | --- | --- | --- | --- | --- | --- |
| 3.59 | below the threshold | below the threshold | 5.25 | 5.21 | below the threshold | below the threshold | below the threshold | below the threshold | below the threshold | 3.8 | 4.93 | 3.82 | 4.77 | 4.41 | 5.47 | below the threshold | below the threshold | below the threshold | below the threshold | TGLWKHETTV [ADGRA3, Q8IWK6] | pKd (RADIL, Q96JH8): 4.43; pKd (SCRIB_3, Q14160): 4.88; pKd (SIPA1L2, Q9P2F8): below the threshold; pKd (TIAM2, Q8IVF5): below the threshold; pKd (TJP1_2, Q07157): below the threshold |
| below the threshold | below the threshold | below the threshold | 4.05 | below the threshold | below the threshold | below the threshold | below the threshold | below the threshold | below the threshold | below the threshold | below the threshold | below the threshold | below the threshold | below the threshold | below the threshold | below the threshold | below the threshold | below the threshold | below the threshold | PYPTADHMLA [JUP, P14923] | pKd (RADIL, Q96JH8): below the threshold; pKd (SCRIB_3, Q14160): below the threshold; pKd (SIPA1L2, Q9P2F8): below the threshold; pKd (TIAM2, Q8IVF5): 3.92; pKd (TJP1_2, Q07157): below the threshold |
| below the threshold | below the threshold | below the threshold | 4.18 | below the threshold | below the threshold | 3.89 | below the threshold | below the threshold | below the threshold | 3.5 | below the threshold | below the threshold | below the threshold | below the threshold | 3.82 | below the threshold | 3.82 | 3.83 | below the threshold | QKAPTKEFYA [SDC2, P34741] | pKd (RADIL, Q96JH8): 3.51; pKd (SCRIB_3, Q14160): below the threshold; pKd (SIPA1L2, Q9P2F8): below the threshold; pKd (TIAM2, Q8IVF5): 4.34; pKd (TJP1_2, Q07157): below the threshold |
